Laboratory results from patent US20180214548A1 (SHANGHAI YUNYI HEALTHCARE AND TECHNOLOGY, published 2018).

What was measured:
[1] = target: T1, cyno PD-1, full length, on CHO-K1 cells (cyno monkey, UniProt B0LAJ3 25-288); test: flow cytometry on CHO-K1-cPD-1 cells
T1 construct: also called CHO-K1-cPD-1; cPD-1
Source text: CHO-K1 cells were stably transfected with pIRES plasmid containing the nucleic acid sequence encoding full length human PD-1 (see Example 2, step 2) to generate CHO-K1 cells stably expressing human PD-1 (herein referred to as CHO-K1-hPD-1 cells). Other CHO-K1 were stably transfected with pIRES plasmid containing the nucleic acid sequence encoding full length cyno PD-1 to generate CHO-K1 cells stably expressing cyno PD-1 (herein referred to as CHO-K1-cPD-1 cells). CHO-K1-hPD-1 and CHO-K1-cPD-1 cells were cultured and expanded in T-75 culture flasks to 90% confluence. The culture media was aspirated, and the cells were washed twice with HBSS (Hanks Balanced Salt Solution, Invitrogen). The cells were treated with enzyme-free cell dissociation solution (Versene solution, Invitrogen) and collected. The cells were then washed twice with HBSS, cell counts were determined, and cells were resuspended with HBSS at 2×10⁶ cells/mL. Goat serum was added to the cell suspension to a final concentration of 1%, and the cells were blocked for 30 minutes on ice and then washed twice with HBSS. The cells were collected after centrifugation and resuspended in FACS buffer (HBSS+1% BSA, v/v) at 2×10⁶ cells/mL. 100 uL of the cell suspension were then added to each well of 96-well plate. 100 uL of purified anti-PD-1 antibodies from Example 2 were added to each well of the 96-well plate and incubated for 2 hours on ice. […] The samples were washed three times with FACS buffer, and 100 uL fixation buffer (4% paraformaldehyde v/v) were added to each well and incubated for 10 minutes. The cells were then washed twice with FACS buffer and resuspended in 100 uL FACS buffer. The mean fluorescence intensity (MFI) was determined using FACS Calibur (BD), and the results are shown in FIGS. 7-8 and in Tables 10-11.

[2] = target: T2, human PD-1^ECD-hFc protein (Immunogen A) (human, UniProt Q15116 25-167); test: BLI Octet Red 96, biotinylated PD-1ECD-hFc on streptavidin sensor
T2 construct: also called PD-1-hFc; hPD-1^ECD-hFc; not shown: human IgG Fc fragment (hFc)
T2 sequence (Q15116 25-167): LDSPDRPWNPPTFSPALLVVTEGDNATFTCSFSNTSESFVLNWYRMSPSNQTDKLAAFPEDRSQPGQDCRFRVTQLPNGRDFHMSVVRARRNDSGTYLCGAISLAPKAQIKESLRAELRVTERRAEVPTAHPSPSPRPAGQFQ
Description: Dissociation constants were determined by Octed red 96 (Fortiebio). The detailed operation and methods were followed according to the specifications of the instrument provided by the manufacturer. Briefly, a streptavidin sensor (SA sensor, Fortiebio) was used for the affinity determination. […] The reaction mixture was further incubated in PBS buffer (pH7.4) containing 0.1% (v/w) BSA and 0.02% (v/v) Tween20 at 30° C. for 5 minutes. […] The affinity, association and dissociation constants were determined using Octet User software, and the results are shown in Table 12.

[3] = target: T3, human PD-1, full length, on cells (human, UniProt Q15116 25-288); test: flow cytometry on CHO-K1-hPD-1 cells
T3 construct: whole, on cells; in the lymphocyte assays the natural PD-1 of human T cells/PBMCs; also called hPD-1; CHO-K1-hPD-1
T3 sequence (Q15116 25-288): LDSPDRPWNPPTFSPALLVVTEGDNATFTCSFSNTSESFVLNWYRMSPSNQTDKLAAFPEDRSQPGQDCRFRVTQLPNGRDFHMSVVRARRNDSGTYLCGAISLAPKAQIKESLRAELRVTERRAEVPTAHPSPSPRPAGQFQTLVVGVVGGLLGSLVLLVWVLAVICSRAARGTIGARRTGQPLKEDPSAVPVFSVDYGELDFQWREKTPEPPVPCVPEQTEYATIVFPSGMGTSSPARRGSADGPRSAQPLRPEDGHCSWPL

[4] = target: T3, human PD-1, full length, on cells; test: cell-based or functional assay
[5] = target: T3, human PD-1, full length, on cells; test: cell-based or functional assay; remark: listed apart in the source
[6] = target: T3, human PD-1, full length, on cells; test: cell-based or functional assay; remark: listed apart in the source
[7] = target: T3, human PD-1, full length, on cells; test: cell-based or functional assay; remark: listed apart in the source

T1 sequence (B0LAJ3 entry or part of it limits assumed): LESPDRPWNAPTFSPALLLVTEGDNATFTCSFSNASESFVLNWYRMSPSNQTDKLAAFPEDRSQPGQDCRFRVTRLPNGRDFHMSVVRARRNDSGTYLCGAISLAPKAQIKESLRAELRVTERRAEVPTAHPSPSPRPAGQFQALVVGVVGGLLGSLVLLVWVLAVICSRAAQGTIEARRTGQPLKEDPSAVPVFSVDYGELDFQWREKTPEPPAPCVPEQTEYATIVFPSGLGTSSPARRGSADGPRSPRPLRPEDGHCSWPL

Binder | MFI at 0.0316 nM [1] [MFI] | MFI at 0.1 nM [1] [MFI] | MFI at 0.316 nM [1] [MFI] | MFI at 1 nM [1] [MFI] | MFI at 3.16 nM [1] [MFI] | MFI at 10 nM [1] [MFI] | MFI at 31.6 nM [1] [MFI] | MFI at 100 nM [1] [MFI] | further results
chimeric anti-PD-1 antibody 204C5E12 (antibody, V domains shown) VH: QVQLVESGGGVVQPGRSLRLSCAASGFSFSYYGMHWVRQAPGKGLEWVAVIWYDGSNKYYADSVKGRFTISRDNSKNTLYLQMNSLRAEDTAVYYCASGITLVRGADYYYNYDMDVWGQGTTVTVSS VL: not shown | 2.9 | 3.1 | 3.1 | 5.1 | 23.4 | 156 | 773 | 944 | 
chimeric anti-PD-1 antibody 32B5C7 (antibody, V domains shown) VH: EVQLLESGGGLVQPGGSLRLSCAASGFTFSSYAMSWVRQAPGKGLEWVSTISGSGGTTYYADSVKGRFTISRDNSKNTLYLQMNSLRAEDTAVYYCTLTGDPDYWGQGTLVTVSS VL: EIVLTQSPATLSLSPGERATLSCRASQSVSSYLAWYQQKPGQAPRLLIYDASKRATGIPARFSGSGSGTDFTLTISSLEPEDFAVYYCQQRNNWPLTFGGGTKVEIK | 2.2 | 13.7 | 25.8 | 46.3 | 89 | 174 | 151 | 150 | Kd [2]: 0.045 nM; koff [2]: 9.64e-06 s⁻¹; kon [2]: 212000 M⁻¹ s⁻¹
fully human anti-PD-1 antibody 32B5C7 (antibody, human IgG4 S228P, kappa, V domains shown) VH: EVQLLESGGGLVQPGGSLRLSCAASGFTFSSYAMSWVRQAPGKGLEWVSTISGSGGTTYYADSVKGRFTISRDNSKNTLYLQMNSLRAEDTAVYYCTLTGDPDYWGQGTLVTVSS VL: EIVLTQSPATLSLSPGERATLSCRASQSVSSYLAWYQQKPGQAPRLLIYDASKRATGIPARFSGSGSGTDFTLTISSLEPEDFAVYYCQQRNNWPLTFGGGTKVEIKR |  |  |  |  |  |  |  |  | MFI at 0.01 nM [3]: 2.8 MFI
chimeric anti-PD-1 antibody 21G8F11 (antibody, V domains shown) VH: EVQLLESGGGLAQPGGSLRLSCAASGFSFNTYLMHWVRQAPGKGLEWVSAISGGGGNTYYADSVKGRFTISRDNSKNTLYLQMNSLRAEDTAVYYCAKENRIPVAPFDYWGQGTLVTVSS VL: DIQMTQSPSTLSASVGDRVTITCRASQSISTWLAWYQQKPGKAPKLLIYKASSLESGVPSRFSGSGSGTEFTLTISSLQPDDLATYYCQQYNSFSWTFGQGTKVEIK |  | 23.4 |  | 156 |  | 773 |  | 944 | IL-2 release, mixed lymphocyte reaction (PBMC donor-1), antibody 0.001 µg/mL [4]: 33.1 pg/mL; IL-2 release, mixed lymphocyte reaction (PBMC donor-1), antibody 0.01 µg/mL [4]: 48.9 pg/mL; IL-2 release, mixed lymphocyte reaction (PBMC donor-1), antibody 0.1 µg/mL [4]: 106 pg/mL; IL-2 release, mixed lymphocyte reaction (PBMC donor-1), antibody 1 µg/mL [4]: 65.6 pg/mL; IL-2 release, mixed lymphocyte reaction (PBMC donor-2), antibody 0.001 µg/mL [5]: 30 pg/mL; IL-2 release, mixed lymphocyte reaction (PBMC donor-2), antibody 0.01 µg/mL [5]: 43.4 pg/mL; IL-2 release, mixed lymphocyte reaction (PBMC donor-2), antibody 0.1 µg/mL [5]: 74.2 pg/mL; IL-2 release, mixed lymphocyte reaction (PBMC donor-2), antibody 1 µg/mL [5]: 103 pg/mL; IFN-γ release, mixed lymphocyte reaction (PBMC donor-1), antibody 0.001 µg/mL [6]: 3010 pg/mL; IFN-γ release, mixed lymphocyte reaction (PBMC donor-1), antibody 0.01 µg/mL [6]: 5910 pg/mL; IFN-γ release, mixed lymphocyte reaction (PBMC donor-1), antibody 0.1 µg/mL [6]: 15300 pg/mL; IFN-γ release, mixed lymphocyte reaction (PBMC donor-1), antibody 1 µg/mL [6]: 15200 pg/mL; IFN-γ release, mixed lymphocyte reaction (PBMC donor-2), antibody 0.001 µg/mL [7]: 2090 pg/mL; IFN-γ release, mixed lymphocyte reaction (PBMC donor-2), antibody 0.01 µg/mL [7]: 2720 pg/mL; IFN-γ release, mixed lymphocyte reaction (PBMC donor-2), antibody 0.1 µg/mL [7]: 2630 pg/mL; IFN-γ release, mixed lymphocyte reaction (PBMC donor-2), antibody 1 µg/mL [7]: 2830 pg/mL
chimeric anti-PD-1 antibody 223G6B5 (antibody, V domains shown) VH: QVQLQESGPGLVKPSETLSLTCAVSGHSIRGSYFWGWIRQPPGRGLEWIGSIYHSGSTYTNPSLKSRATISVDTSKNQFSLKLNSVTAADTAVYYCARDLDIATTRDYWGQGTLVTVSS VL: DIQLTQSPSFLSASVGDRVTIICRASQGINNYLAWYQQKPGKAPKLLIYAASTLQSGVPSRFSGSGSGTEFTLTISSLQPEDFATYYCQQLDSYPRTFGQGTKVEIKR |  | 50.6 |  | 475 |  | 2120 |  | 2340 | 
chimeric anti-PD-1 antibody 76G5B3 (antibody, V domains shown) VH: QVQLVESGGGVVQPGRSLRLSCAASGFTFSDYGFHWVRQAPGKGLEWVAVIWYDGSNEYYTDSVKGRFTISRDNSKNTLYLQMNSLRAEDTAMYFCVVNPFDYWGQGTLVTVSS VL: DIQMTQSPSSLSAFVGDRVTITCRASQGINHYLAWYQQKPGKAPNLLILAASTLLSGVPSRFGGRGSGTDFTLIISSLQPEDVATYYCQKYDSAPYTFGQGTKLEIK | 2.3 | 28.4 | 59.3 | 132 | 217 | 326 | 314 | 297 | IL-2 release, mixed lymphocyte reaction (PBMC donor-1), antibody 0.001 µg/mL [4]: 88.8 pg/mL; IL-2 release, mixed lymphocyte reaction (PBMC donor-1), antibody 0.01 µg/mL [4]: 131 pg/mL; IL-2 release, mixed lymphocyte reaction (PBMC donor-1), antibody 0.1 µg/mL [4]: 148 pg/mL; IL-2 release, mixed lymphocyte reaction (PBMC donor-1), antibody 1 µg/mL [4]: 140 pg/mL; IL-2 release, mixed lymphocyte reaction (PBMC donor-2), antibody 0.001 µg/mL [5]: 93.3 pg/mL; IL-2 release, mixed lymphocyte reaction (PBMC donor-2), antibody 0.01 µg/mL [5]: 145 pg/mL; IL-2 release, mixed lymphocyte reaction (PBMC donor-2), antibody 0.1 µg/mL [5]: 182 pg/mL; IL-2 release, mixed lymphocyte reaction (PBMC donor-2), antibody 1 µg/mL [5]: 194 pg/mL; IFN-γ release, mixed lymphocyte reaction (PBMC donor-1), antibody 0.001 µg/mL [6]: 2900 pg/mL; IFN-γ release, mixed lymphocyte reaction (PBMC donor-1), antibody 0.01 µg/mL [6]: 7530 pg/mL; IFN-γ release, mixed lymphocyte reaction (PBMC donor-1), antibody 0.1 µg/mL [6]: 12100 pg/mL; IFN-γ release, mixed lymphocyte reaction (PBMC donor-1), antibody 1 µg/mL [6]: 8110 pg/mL; IFN-γ release, mixed lymphocyte reaction (PBMC donor-2), antibody 0.001 µg/mL [7]: 1810 pg/mL; IFN-γ release, mixed lymphocyte reaction (PBMC donor-2), antibody 0.01 µg/mL [7]: 5520 pg/mL; IFN-γ release, mixed lymphocyte reaction (PBMC donor-2), antibody 0.1 µg/mL [7]: 12700 pg/mL; IFN-γ release, mixed lymphocyte reaction (PBMC donor-2), antibody 1 µg/mL [7]: 15900 pg/mL; Kd [2]: 0.032 nM; koff [2]: 1.3e-05 s⁻¹; kon [2]: 408000 M⁻¹ s⁻¹
chimeric anti-PD-1 antibody 226C3A7 (antibody, V domains shown) VH: QVQLQQSGPGLVNPSQTLSLTCAISGDSVSSNSGAWNWIRQSPSRGLEWLGRTYYRSKWYNDYGISVQSRITINPDTSKNHFSLQLNSVTPEDTAVYYCARDPYYYGSGSYFDYWGQGTLVTVSS VL: EIVMTQSPATLSVSPGERVTLSCRASLSVNSNLAWYQQKPGQAPRLLIYDTSTRATGVPARFSGSGSGTEFTLTISSLQSEDFAVYYCQQYHYWPLTFGGGTKVEIK | 3.3 | 3.3 | 3.6 | 5.8 | 28 | 221 | 848 | 933 | 
